According to US8440430, “Modified dicer polypeptide and methods of use thereof” (The Regents of the University of California):

T1: ΔDEAD human Dicer (lacks DExD/H-box domain, aa 1-604 deleted) (Homo sapiens, UniProt Q9UPY3 SEQ:1-1318)
T1 chain: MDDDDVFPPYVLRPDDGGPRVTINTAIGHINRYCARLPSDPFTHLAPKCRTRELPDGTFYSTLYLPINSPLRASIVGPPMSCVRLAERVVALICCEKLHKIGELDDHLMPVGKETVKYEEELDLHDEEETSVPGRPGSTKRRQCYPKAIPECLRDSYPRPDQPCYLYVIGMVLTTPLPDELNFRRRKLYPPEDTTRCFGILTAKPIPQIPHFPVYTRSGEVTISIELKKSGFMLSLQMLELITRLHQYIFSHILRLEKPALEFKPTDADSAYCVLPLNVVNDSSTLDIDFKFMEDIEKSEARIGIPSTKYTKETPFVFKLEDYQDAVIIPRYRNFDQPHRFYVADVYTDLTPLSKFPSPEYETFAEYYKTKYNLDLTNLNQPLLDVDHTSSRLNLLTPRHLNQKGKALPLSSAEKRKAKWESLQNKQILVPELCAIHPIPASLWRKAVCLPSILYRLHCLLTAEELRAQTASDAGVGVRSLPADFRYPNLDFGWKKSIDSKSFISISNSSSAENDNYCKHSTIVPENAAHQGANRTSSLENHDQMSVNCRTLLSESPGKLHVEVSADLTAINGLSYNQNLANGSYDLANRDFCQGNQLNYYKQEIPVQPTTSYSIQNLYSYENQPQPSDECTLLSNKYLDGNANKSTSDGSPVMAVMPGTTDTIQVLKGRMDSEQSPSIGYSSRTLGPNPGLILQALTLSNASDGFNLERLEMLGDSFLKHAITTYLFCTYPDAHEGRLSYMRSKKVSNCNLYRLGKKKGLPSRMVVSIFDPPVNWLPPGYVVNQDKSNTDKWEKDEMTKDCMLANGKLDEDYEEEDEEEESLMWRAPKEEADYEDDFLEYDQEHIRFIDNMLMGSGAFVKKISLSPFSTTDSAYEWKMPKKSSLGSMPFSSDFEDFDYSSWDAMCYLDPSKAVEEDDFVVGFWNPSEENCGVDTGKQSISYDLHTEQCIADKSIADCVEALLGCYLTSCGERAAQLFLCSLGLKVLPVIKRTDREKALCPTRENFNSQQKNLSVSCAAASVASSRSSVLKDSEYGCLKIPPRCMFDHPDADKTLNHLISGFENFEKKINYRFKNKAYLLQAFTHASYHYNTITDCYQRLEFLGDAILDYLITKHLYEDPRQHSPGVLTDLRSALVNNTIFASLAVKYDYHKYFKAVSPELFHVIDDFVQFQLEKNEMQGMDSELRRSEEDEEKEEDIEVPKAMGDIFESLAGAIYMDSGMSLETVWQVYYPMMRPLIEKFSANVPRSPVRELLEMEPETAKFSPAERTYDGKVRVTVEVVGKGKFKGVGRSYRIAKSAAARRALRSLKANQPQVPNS

B1: pre-hlet-7 hairpin RNA (ssRNA)
RNA: UGAGGUAGUAGGUUGUAUAGUUUUAGGGUCACACCCACCACUGGGAGAUAACUAUACAAUCUACUGUCUUACC
B2: 37ab duplex RNA (dsRNA)
RNA 1: UGAGGUAGUAGGUUGUAUAGUUUGAAAGUUCACGAUU
RNA 2: UCGUGAACUUUCAAACUAUACAACCUACUACCUCAUU

Key:
Conditions in all cases: tags: N-terminal His6 removed by site-specific protease, baculovirus/Sf9
[1] = biological target: ΔdsRBD human Dicer (Homo sapiens, UniProt Q9UPY3 SEQ:1-1922, del1844-1922); experiment: filter; within three-fold of full-length; dsRBD deletion did not significantly affect binding; 5 mM EDTA
Sequence of ΔdsRBD human Dicer (Q9UPY3 1-1843, stated change not applied): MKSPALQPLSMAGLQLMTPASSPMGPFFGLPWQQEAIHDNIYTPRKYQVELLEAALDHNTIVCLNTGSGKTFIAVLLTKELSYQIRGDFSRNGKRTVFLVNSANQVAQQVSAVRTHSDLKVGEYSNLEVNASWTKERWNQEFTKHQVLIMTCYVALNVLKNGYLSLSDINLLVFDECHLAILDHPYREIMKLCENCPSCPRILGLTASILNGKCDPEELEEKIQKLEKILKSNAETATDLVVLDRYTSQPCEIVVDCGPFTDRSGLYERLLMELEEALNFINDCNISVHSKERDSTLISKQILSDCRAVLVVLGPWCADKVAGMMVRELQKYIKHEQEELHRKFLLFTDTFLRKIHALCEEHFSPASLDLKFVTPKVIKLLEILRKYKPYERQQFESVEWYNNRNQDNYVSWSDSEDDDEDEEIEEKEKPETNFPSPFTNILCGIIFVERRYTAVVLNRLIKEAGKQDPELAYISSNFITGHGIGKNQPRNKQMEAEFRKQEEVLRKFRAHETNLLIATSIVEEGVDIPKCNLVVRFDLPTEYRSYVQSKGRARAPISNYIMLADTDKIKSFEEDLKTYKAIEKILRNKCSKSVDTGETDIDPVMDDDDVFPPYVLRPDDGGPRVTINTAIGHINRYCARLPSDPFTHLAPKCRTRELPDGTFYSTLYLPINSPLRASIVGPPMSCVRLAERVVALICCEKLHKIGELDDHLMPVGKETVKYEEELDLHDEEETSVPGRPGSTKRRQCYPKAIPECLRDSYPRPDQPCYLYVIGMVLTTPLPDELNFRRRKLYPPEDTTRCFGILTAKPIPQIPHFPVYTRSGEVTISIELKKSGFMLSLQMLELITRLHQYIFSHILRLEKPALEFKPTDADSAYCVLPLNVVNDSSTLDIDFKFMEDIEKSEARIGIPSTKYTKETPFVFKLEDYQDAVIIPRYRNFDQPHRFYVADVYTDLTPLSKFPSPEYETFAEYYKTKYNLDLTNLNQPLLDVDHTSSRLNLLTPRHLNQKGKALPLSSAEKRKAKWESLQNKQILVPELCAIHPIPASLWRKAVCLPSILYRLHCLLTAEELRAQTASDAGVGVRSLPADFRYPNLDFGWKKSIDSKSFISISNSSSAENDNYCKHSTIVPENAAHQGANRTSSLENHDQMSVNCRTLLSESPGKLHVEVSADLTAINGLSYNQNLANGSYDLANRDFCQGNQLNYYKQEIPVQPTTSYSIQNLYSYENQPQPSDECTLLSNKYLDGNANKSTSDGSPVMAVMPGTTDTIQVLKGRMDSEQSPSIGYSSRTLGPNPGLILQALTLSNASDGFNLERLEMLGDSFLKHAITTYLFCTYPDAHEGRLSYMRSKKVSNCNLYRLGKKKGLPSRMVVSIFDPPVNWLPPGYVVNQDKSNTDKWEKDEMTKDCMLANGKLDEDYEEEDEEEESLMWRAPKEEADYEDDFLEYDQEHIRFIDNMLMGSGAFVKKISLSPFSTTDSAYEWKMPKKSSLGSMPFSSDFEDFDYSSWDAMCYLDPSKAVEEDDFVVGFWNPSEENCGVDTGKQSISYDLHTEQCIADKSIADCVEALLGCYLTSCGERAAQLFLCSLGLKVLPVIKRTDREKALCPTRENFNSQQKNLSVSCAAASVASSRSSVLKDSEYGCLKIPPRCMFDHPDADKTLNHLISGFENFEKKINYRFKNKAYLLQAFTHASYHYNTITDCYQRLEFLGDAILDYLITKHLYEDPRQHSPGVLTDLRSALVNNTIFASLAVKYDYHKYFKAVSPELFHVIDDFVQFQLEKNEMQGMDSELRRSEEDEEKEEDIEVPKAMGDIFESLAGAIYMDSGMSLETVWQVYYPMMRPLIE
Experimental: A serial dilution of proteins were incubated in a buffer containing 20 mM Tris-Cl (pH 7.5), 25 mM NaCl, 5 mM EDTA, 1 mM dithiothreitol (DTT), 1% glycerol and ~0.5-1 nM (1500 c.p.m.) of ^32P-labeled duplex RNA substrate (one strand was labeled) at room temperature for 60 min […] After this incubation, 25 µl of each reaction were used for dot-blotting, which was conducted in a dot-blot apparatus equipped with 3 membranes of Tuffryn, Protran and Nytran (from top to bottom). After dried, the bound (on Protran) or free (on Nytran) RNAs were detected and quantified with Phosphoimager (GE Healthcare). Percentage of bound RNAs was calculated by 100 multiplied by the ratio of radioactivity (volumes) detected on the Protran membrane over the total input volumes (radioactivity). The bound RNAs (%) (Y-axle) were plotted against protein concentrations (X-axle). K_d was determined by global fitting to the equation of kobsd = (kmax ×[Dicer])(K_{1/2} + [Dicer])^-1, here $kobsd$ is the observed rate constant at a particular protein concentration, $kmax$ is the maximal rate constant with saturating protein, and K_{1/2} (or K_d) is the protein concentration that provides half the maximal rate. Curve fitting was conducted with KleidaGraph (Synery Software).
RNA. […] These values are similar to those measured previously (Provost et al, 2002; Vermeulen et al, 2005).

[2] = biological target: ΔDUF human Dicer (lacks DUF283) (Homo sapiens, UniProt Q9UPY3 SEQ:1-1922, del630-709); experiment: filter; within three-fold of full-length; 5 mM EDTA; exact Kd only in figure
Experimental: (§1) After dried, the bound (on Protran) or free (on Nytran) RNAs were detected and quantified with Phosphoimager (GE Healthcare). Percentage of bound RNAs was calculated by 100 multiplied by the ratio of radioactivity (volumes) detected on the Protran membrane over the total input volumes (radioactivity). The bound RNAs (%) (Y-axle) were plotted against protein concentrations (X-axle). K_d was determined by global fitting to the equation of kobsd = (kmax ×[Dicer])(K_{1/2} + [Dicer])^-1, here $kobsd$ is the observed rate constant at a particular protein concentration, $kmax$ is the maximal rate constant with saturating protein, and K_{1/2} (or K_d) is the protein concentration that provides half the maximal rate. Curve fitting was conducted with KleidaGraph (Synery Software).
(§2) RNA. […] These values are similar to those measured previously (Provost et al, 2002; Vermeulen et al, 2005). […] The protein lacking both the DExD/H-box domain and the dsRBD (2DD) bound ~3-4 fold more weakly to either substrate relative to full-length Dicer (FIG. 3A-C). It is possible that this severely truncated protein is generally destabilized, or that the DExD/H-box domain plays a small but measurable role in substrate binding.

[3] = biological target: T1, ΔDEAD human Dicer (lacks DExD/H-box …); experiment: as above
Experimental: as §1, §2

[4] = label: 5'-32P on one strand, perfect duplex with 2-nt 3' overhangs on both ends

| Binder | Kd relative to full-length Dicer ([1]; label: 5'-32P, hairpin) | Kd relative to full-length Dicer (fold) ([2]; label: 5'-32P, hairpin) | Kd relative to full-length Dicer (fold) ([3]; label: 5'-32P, hairpin) | Kd relative to full-length Dicer [1, 4] | Kd relative to full-length Dicer (fold) [2, 4] | Kd relative to full-length Dicer (fold) [3, 4] |
| --- | --- | --- | --- | --- | --- | --- |
| B1 | ≤ 3 fold of full-length Kd (30 nM) | ≤ 3 fold of full-length Kd (30 nM) | ≤ 3 fold of full-length Kd (30 nM) |  |  |  |
| B2 |  |  |  | ≤ 3 fold of full-length Kd (75 nM) | ≤ 3 fold of full-length Kd (75 nM) | ≤ 3 fold of full-length Kd (75 nM) |
